{
  "source": "paper PMC3594189",
  "about": "“Cellular Catabolism of the Iron-Regulatory Peptide Hormone Hepcidin” (PLoS ONE, 2013)",
  "key": {"[1]": {"target": "T1, ECR293 cells expressing Fpn-GFP (Mus musculus, UniProt Q9JHI9)", "T1 construct": "expressed in transfected cells; host or cells: ECR293 (ECR-Fpn) cells, ponasterone-inducible", "T1 sequence (Q9JHI9 1-570)": "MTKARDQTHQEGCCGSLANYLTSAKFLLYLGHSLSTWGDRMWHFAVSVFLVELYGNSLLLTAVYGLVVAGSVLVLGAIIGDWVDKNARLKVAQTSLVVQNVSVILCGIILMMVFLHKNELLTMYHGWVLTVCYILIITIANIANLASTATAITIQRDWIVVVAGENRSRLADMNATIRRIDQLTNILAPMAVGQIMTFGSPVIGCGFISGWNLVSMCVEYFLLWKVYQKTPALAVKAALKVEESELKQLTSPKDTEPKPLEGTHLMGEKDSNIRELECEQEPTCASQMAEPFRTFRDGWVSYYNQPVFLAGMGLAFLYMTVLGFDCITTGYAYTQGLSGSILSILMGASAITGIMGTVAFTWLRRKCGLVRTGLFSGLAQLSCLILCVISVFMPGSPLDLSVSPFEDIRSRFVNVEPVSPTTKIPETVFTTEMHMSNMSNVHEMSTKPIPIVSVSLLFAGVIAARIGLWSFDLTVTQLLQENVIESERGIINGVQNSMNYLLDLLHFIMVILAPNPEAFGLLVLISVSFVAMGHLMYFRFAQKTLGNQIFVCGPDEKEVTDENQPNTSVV", "assay_type": "cell-based", "procedure": "ECR-Fpn cells were plated on poly-D-lysine coated plates in the presence of 20 µM FAC, with or without 10 µM ponasterone, and incubated at 37°C. After 24 h, cells were washed with PBS and 1 ml of serum free media was added. The cells were treated with 5×10^5 cpm of ^125I–hepcidin for 2 h (loading period) at 37°C. After 2 h the cells were washed 3 times with DMEM/10% fetal bovine serum to remove unbound ^125I-hepcidin and 1 ml serum-free media with 20 µM FAC was added to all wells. Cells were incubated at 37°C for 5 min, 4, 8 and 24 h after loading. To prevent lysosomal acidification and proteolysis, 100 nM bafilomycin was added to assigned wells for 24 h. The supernatant was collected, its radioactivity quantified by a gamma counter, and an aliquot subjected to HPLC analysis. The cells were washed once and centrifuged for 2 min at 12,000xg through a silicone oil layer (Nyosil M25, Nye, Fairhaven, MA). The radioactivity in cell pellets was determined by gamma counting (Beckman, Fullerton, CA).\nAliquots of the supernatants were analyzed by reversed-phase high-performance liquid chromatography (RP-HPLC) on Vydac C18 column (218TP54; Waters). Fractions were eluted over 30 minutes with an acetonitrile gradient (1 fraction per minute) and their radioactivity determined by gamma counting."}, "[2]": {"target": "T1, ECR293 cells expressing Fpn-GFP", "assay_type": "cell-based", "conditions": "for effect of lysosomal inhibitor on degradation of both hepcidin and ferroportin: chloroquine 100 µM or bafilomycin 100 nM for 20 h after 4 h TR-Hep loading, flow cytometry", "procedure": "ECR-Fpn cells were plated on poly-D-lysine-coated plates in the presence of 20 µM FAC, with or without 10 µM ponasterone. After 24 h, ponasterone was washed off, and cells were loaded with 1 µg/ml TR-Hep for 4 h. After 4 h, cells were washed with PBS, fresh media was added and cells were treated with or without lysosomal inhibitors chloroquine (100 µM) and bafilomycin (100 nM). Twenty hours after the addition of inhibitors, cells were trypsinized and resuspended at 1×10^6 cells/ml, and the intensity of red and green fluorescence was analyzed by flow cytometry at UCLA Jonsson Comprehensive Cancer Center and Center for AIDS Research Flow Cytometry Core Facility (supported by NIH awards CA-16 042 and AI-28 697, the UCLA AIDS institute, and the UCLA School of Medicine). Flow cytometry was performed on FACSVantage SE sorting flow cytometer with digital electronics (Becton Dickinson, San Jose, CA) and analyzed with FACSDiva software (Becton Dickinson). Cells not induced with ponasterone were used to establish a gate to exclude background fluorescence. Loss of cellular Fpn-GFP was quantified as % of green fluorescence in induced cells not treated with hepcidin. Degradation of cellular TR-Hep was measured as % of red fluorescence in induced cells treated with TR-Hep for 4 h."}, "[3]": {"conditions": "cited from earlier work", "source_text": "This study was the first to examine the fate of hepcidin from its initial binding to ferroportin to its cellular catabolism. We show here that hepcidin is internalized together with ferroportin and that both are degraded in lysosomes. Because of the small size of hepcidin (∼2.7 kD) and its weak binding to plasma proteins, glomerular filtration and proteolysis in proximal tubules is thought to be the major mechanism for hepcidin clearance from blood. Detectable concentrations of hepcidin in urine, indicative of peptide that escaped proteolysis in the proximal tubules, are consiste ..."}, "[4]": {"target": "T2, Fpn-GFP expressing ECR293 cells (ferroportin) (Mus musculus, UniProt Q9JHI9)", "T2 construct": "expressed in transfected cells; host or cells: ECR293 (ECR-Fpn) cells, ponasterone-inducible", "T2 sequence (Q9JHI9 1-570)": "T1 sequence (Q9JHI9 1-570)", "test": "Temperature and pH dependent 125I-hepcidin binding/internalization assay", "assay_type": "cell-based", "procedure": "^125I-hepcidin (10^6 cpm, specific activity ∼10^7 cpm/µg) was added to ECR-Fpn cells plated on poly-D-lysine coated plates in the presence of 20 µM FAC, with or without 10 µM ponasterone. Cells were incubated with radiolabeled hepcidin at different temperatures (0, 15, 23 and 37°C) for 1 hour. For pH experiments, growth medium was replaced with media adjusted to pH of 2, 4, 5, 6, 7, 8 and 9 (without additional FAC) and radiolabeled hepcidin was added for 1 h at 37°C. Cells were washed with phosphate-buffered saline (PBS) to remove unbound radioactive hepcidin and centrifuged for 2 minutes at 12,000xg through a silicone oil layer (Nyosil M25; Nye). The radioactivity in cell pellets was determined by gamma counting. The temperature-dependence data are expressed in counts-per-minute (cpm), whereas pH-dependence data were normalized because of the variability in absolute cpm values between experiments and expressed as % of radioactivity at pH 7. The radioactivity of uninduced cells subtracted as background for each point."}, "Fpn-GFP expressing cells": {"target": "T3, Fpn-GFP expressing cells (Mus musculus, UniProt Q9JHI9)", "T3 construct": "expressed in transfected cells; host or cells: ECR293 (ECR-Fpn) cells, ponasterone-inducible", "T3 sequence (Q9JHI9 1-570)": "T1 sequence (Q9JHI9 1-570)", "test": "Confocal microscopy co-localization of TR-Hep with Fpn-GFP", "assay_type": "cell-based", "procedure": "ECR-Fpn cells were plated in a 12-well plate on 12 mm poly-D-lysine coated round coverslips (Becton Dickinson, Franklin Lakes, NJ) in the presence of 20 µM ferric ammonium citrate (FAC) with or without 10 µM ponasterone. FAC is added to the medium to prevent cellular iron depletion caused by prolonged Fpn-GFP overexpression. After 24 h, ponasterone was washed off, and cells were treated with 1 µg/ml TR-Hep at 37°C protected from light. After 1 hour, cells were washed with PBS two times and the coverslip was placed on a slide, sealed with clear nail polish and immediately analyzed. Images were scanned at the UCLA CNSI Advanced Light Microscopy Facility and the BRI Cell Imaging Facility on a Leica TCS-SP MP Confocal and Multiphoton Inverted Microscope (Heidelberg, Germany) equipped with an argon laser (488 nm blue excitation: JDS Uniphase), a 561 nm (green) diode laser (DPSS: Melles Griot), and a two photon laser setup consisting of a Spectra-Physics Millenia×532 nm green diode pump laser and a Tsunami Ti-Sapphire picosecond pulsed infrared laser tuned at 768 nm for UV excitation. Images were acquired using LCS Lite software (Leica Confocal Software, Leica Microsystems, Manheim, Germany)."}, "ferroportin": {"test_system": "ferroportin", "conditions": "naturally occurring urinary forms; cited from earlier work"}},
  "note": "No end group written: not given here.",
  "data": [
    {"compound": "CO/C1=C\\C(C)=C\\[C@@H](C)[C@@H](O)[C@@H](C)C/C(C)=C/C=C/[C@H](OC)[C@@H]([C@@H](C)[C@@H](O)[C@H](C)[C@@]2(O)C[C@@H](O)[C@H](C)[C@@H](C(C)C)O2)OC1=O", "note": "[bafilomycin, reference compound]", "values": [
      {"measurement": "effect of bafilomycin on cellular radioactivity", "setting": "[1]; 100 nM bafilomycin for 24 h after 125I-hepcidin loading, gamma counting of cell pellets", "value": "increased the retention of radioactivity in cells"},
      {"measurement": "effect of lysosomal inhibitor on degradation of both hepcidin and ferroportin", "setting": "[2]", "value": "completely prevented the degradation"}
    ]},
    {"compound": "CCN(CC)CCCC(C)Nc1ccnc2cc(Cl)ccc12", "note": "(stereo not drawn) [chloroquine]", "values": [
      {"measurement": "effect of lysosomal inhibitor on degradation of both hepcidin and ferroportin", "setting": "[2]", "value": "completely prevented the degradation"}
    ]},
    {"compound": "Hepcidin: 25-amino acid peptide hormone, principal regulator of plasma iron concentrations; synthetic hepcidin from Peptides International", "values": [
      {"measurement": "binding to plasma proteins", "setting": "[3]", "value": "weak binding"},
      {"measurement": "specific binding at pH lower than 6", "setting": "[4]; pH 2, 4, 5, 1 h at 37°C, uninduced-cell background subtracted", "value": "did not bind specifically"},
      {"measurement": "binding to ferroportin at pH 9", "setting": "[4]; pH 9 among pH 2, 4, 5, 6, 7, 8 and 9, 1 h at 37°C, normalized to pH 7", "value": "highest binding"}
    ]},
    {"compound": "TR-Hep: synthetic hepcidin labeled with Texas Red-X succinimidyl ester", "values": [
      {"measurement": "co-localization of red hepcidin with green ferroportin in vesicles", "setting": "Fpn-GFP expressing cells; 1 µg/ml TR-Hep, 1 h, 37°C, induced cells, confocal microscopy", "value": "nearly complete co-localization"},
      {"measurement": "red fluorescence in uninduced cells", "setting": "Fpn-GFP expressing cells; uninduced cells treated with TR hepcidin, data not shown", "value": "no detectable red fluorescence"},
      {"measurement": "degradation of Fpn-GFP after TR-Hep", "setting": "[2]; 24 h after addition of 1 µg/ml TR-Hep, green fluorescence by flow cytometry", "value": "nearly completely degraded"}
    ]},
    {"compound": "^125I-hepcidin: synthetic hepcidin with M21Y substitution iodinated with 125I (DTHFPICIFCCGCCHRSKCGYCCKT; disulfide (positions not given here); not fully specified (bridges); ends not checked; also: iodinated with 125I, site not given here; UniProt P81172 60-84, looked up, variant M21Y)", "values": [
      {"measurement": "radioactivity in cell pellets after loading", "setting": "[1]", "value": "almost complete loss of radioactivity"},
      {"measurement": "binding of 125I-hepcidin to Fpn-GFP expressing cells at temperatures below 37°C", "setting": "[4]; 1 h at 0, 15, 23 and 37°C, cell-bound radioactivity by gamma counting (cpm), at least three experiments", "value": "decreased"}
    ]},
    {"compound": "hepcidin-20: degradation product of hepcidin-25 detected in urine, truncated at the N-terminus by 5 amino acids (ICIFCCGCCHRSKCGMCCKT; disulfide (positions not given here); ends not checked; also: disulfide bridges, pairing not given here; UniProt P81172 65-84, looked up)", "values": [
      {"measurement": "activity relative to hepcidin-25", "setting": "ferroportin", "value": "much less active than hepcidin-25"}
    ]}
  ]
}
